Test results from the nanobody polyreactivity screen of Harvey et al. (2022).

Test: yeast display, Sf9 membrane polyspecificity reagent, FACS + sequencing; frameworks hold sequencing errors
Outline: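 Synthetic nanobody libraries on Saccharomyces cerevisiae BJ5465 were galactose-induced for 36–48 hours, stained 1 hour at 4 °C with 10% biotinylated, detergent-solubilized Sf9 membrane reagent and enriched on streptavidin microbeads. FACS then separated cells into low and high (top ~1%) gates by anti-HA (expression) and streptavidin (reagent binding) fluorescence. Genes were colony-PCR amplified, MiSeq 2 × 250 sequenced and CDR-length filtered. A clone's polyreactivity label is that of its gate of origin.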

Sequence | polyreactivity (PSR sort gate)
QVQLVESGGGLVQAGGSLRLSCAASGSILDPYAMGWYRQAPGKERELVADISSGASTNYADSVKGRFTISRDNAKNTVYLQMNSLKPEDTAVYYCAAVYVEYSEYRYIVELYYWGQGTQVTVSS | low polyreactivity
QVQLVESGGGLVQAGGSLRLSCAASGRTFYGYAMGWYRQAPGKERELVAGITSRVGSTYYADSVKGRFTISRDNAKNTVYLQMNSLKPEDTAVYYCAADRYAVRSYHYDYWGQGTQVTVSS | low polyreactivity
QVQLVESGGGLVQAGGSLRLSCAASGSTFTFYAMGWYRQAPGKERELVASITQSTGSTHYADSVKGRFTISRDNAKNTVYLQMNSLKPEDTSVYYCNAQKIVYYWVTLFPYYYWGQGTQVTVSS | low polyreactivity
QVQLVESGGGLVQAGGSLRLSCAASGLTFADYAMGWYRQAPGKERELVAAISRRGGSTYYADSVKGRFTISRDNAKNTVYLQMNSLKPEDTAVYYCAAGNRVNRFDYWGQGTQVTVSS | high polyreactivity
QVQLVESGGGLVQAGGSLSLSCAASGRSFRIYPMGWYRPAPGKERELVATITWRAGSTYYADSVKGRFTISRDNAKNTVYLLMNSLTPEDTAVYYFAAGRQYGGYRYDYWGQGTQVTVSS | high polyreactivity
QFQLVESGGGLDQAGGSLRLSCAASGITVYYYALGCYRQAPGKERELVAAITSSGGSTYYADSVKGRFTISRDNAKNTVYLQMNSLKPEDTAVYYCAARSYRGSSTYQGHGYWGQGTQVTVSS | high polyreactivity
QVQLVESGGGLVQAGGSLRLSCAASGSIFPRNAMGWYRQAPGKERELVAGISSGGSTNYADSVKGRFTISRDNAKNTVYLQMNSLKPEDTAVYYCAARQWIRNLGFGYSIYYYWGLGTQVTVSS | high polyreactivity
QVQLVESGGGLVQAGGSLRLSCAASGSIFWPNVMGWYRQAPGKDRELVAAIRSDGSTYYADSVKGRFTISRDNAKNTVYLQMNSLKPEDAAVYYCATKFFRQTIYRAKYNYWGQGTQVTVSS | low polyreactivity
QGQLVESGGCLVQAGGSLRLSCAASGRTFYRNAMCLYRQSPGKERELVAVISSSGVRTYYADSVKGRFTISRDNAKNTVYLQMNSLKPEDTAVYYCAADSNSYYRGFDYWGQGTQVTVSS | high polyreactivity
QVQLVESGGGLVQAGGSLRLSCAASGSTFRRNAMGWYRQAPGKEREFVAAISSRGGSTYYADSVKGRFTISRDNAKNTVYLQMNSLKPEDTAVYYCAADKASRHSNPFYYWGQGTQVTVSS | high polyreactivity
QVQLVESGGGLVQAGGSLRLSCAASGFTFAYYAMGWYRQAPGKERELVAAISYSGGSTYYADSVKGRFTISRDNAKNTVYLQMNSLKPEDTAVYYCAAEAGRRYNWGYDYWGQGTQVTVSS | high polyreactivity
QVQLVESGGGLVQAGGSLRLSCAASGSIFYSNAMGWYRQAPGKERELVAAITRRGGSTYYADSVKGRFTISRDNAKNTVYLQMNSLKPEDTAVYYCAARYYRRFAHYGEYGYWGQGTQVTVSS | high polyreactivity
QVQLVESGGGLVQAGGSLRLSCAASGYTFGYYALGRYRPAPGKERELVAAISSGGITKYADSVKGRFTISRENAKNTVYLQMNSLKPEDTAVYYCAASWYRYRFIRYDYWGQGTQVTVSS | high polyreactivity
QVQLVESGGGLVQAGGSLRLSCAASGRTFGQYAMGWYRQAPGKERELVAAITGGGSTNYADSVKGRFTISRDNAKNTVYLHMNSLKPEDTAVYYCAAKARSYWYPRLYIYEGDYWGQGTQVTVSS | low polyreactivity
QVQLVESGGGLVQAGGSLRLSCAASGRIFYAYAKGWYRPAPGKEREVVAAITRGGSTYYADSVKGRFTISRDNAKNTVYLQLNCLKREDTAVYSWAAQGYAPPLGESLGYWGEGTQVTVSS | low polyreactivity
QVQLVESGGGLVQAGGSLRLSCAASGSTFYGYTMGWYRQATGKERELVAVITYGGSTYYADSVKGRFTISRDNAKNTVYLQMNSLKPEDTAVYYCAKRYAYPAYGRPWRIGRTYDYWGQGTQVTVSS | low polyreactivity
QVQLVESGGGLVQAGGSLRLSCAASGSIFSYYTMGWYRPAPGKERELVAAISYSGGRTYYADSVKGRFTISRDNAKNTVYLQMNSLKTEDTAVYYCSAKLLQLRGRGYEYWGQGTQVTVSS | high polyreactivity
QVQLVESGGGLVQAGGSLRLSCAASGRIFGYYAMGWYRQAPGKERELVAAISWTGASTYYADSVKGRFTISRDNAKNTVYLQMNSLKPEDTAVYYCAVDRGLDYYWGQGTQVTVSS | high polyreactivity
QVQLVESGGGLVQAGGSLRLSCAASGLTFHAYAMGWYRQPPGKEREFVAAITRSGSSTSYADSVKGRFTISRDNAKNTVYLQMNSLKPEDTAVYYCAAQGSRKYRNDYWGQGTQVTVSS | high polyreactivity
QVQLVESGGGLVQAGGSLRLSCAASGSIFNRYAIGWYRQAPGKERELFAAISSTGSTYYADSVKGRFTISRDNAKKTVYLQMNRLKPEDTAVYYCNADVLALAPYDYWGQGTQVNVSS | low polyreactivity

Sequence | polyreactivity (PSR sort gate)
QVHLVESGGGLVQAGGSLRLSCAASGRTFATNTMGWYRQAPGKEREFVAAISRGGVSTSYADSVKGRFTISRDNAKNTVYLQMNSLKPEDTAVYYCAAKHYGFNRNHRHSYDYWGQGTQVTVSS | high polyreactivity
QVQLVESGGGLVQAGGSLRLSCAASGRIFLWYAMGWYRQAPGKERELVASITRSGVTTYYADSVKGRFTISRDNAKNTVYLQMNSLKPEDTAVYYCNKDFRGDAIKLDVNYWGQGTQVTVSS | low polyreactivity
QVQLVESGGGLVQAGGSLRLSCAASGSTFHRYAMGWYRQAPGKERQLVARINGSGGSTYYADSVKGRFTISRDNAKNTVYLQMNSLKPEDTAVYYCNARAVSVRASTKVPSGLYDFWGQGTQVTVSS | low polyreactivity
QVQLVETGGGLVQAGGSLRLSCAASGFTCYRNAIGWYRQAPRKDREIVAAITSDGITYYADSVKGRFTMSRDNAKNTVYLQMNSLKPEDTAVYYCAADVQADLYSYEYDYWGQGTQVTVSS | low polyreactivity
QVQLVESGGGLVQAGGSLRLSCAASGRIFKIYAMGWYRQAPGKERELVAAISRGGRTYYADSVKGRFTISRDNAKNTVYLQMNSLKPEDTAVYYCAADLLISPEFYYWGQGTQVTVSS | high polyreactivity
QVQLVESGGGLVQAGGSLRLSCAASGFSFSRYAMGWYRQAPGKDRELVATITSGGGGTYYADSVKGRFTISRDNAKNTVYLQKNSLKPEDTAVYYCAKYSPYYRNGLDYWGHGTQVTVSS | high polyreactivity
QVQLVESGGGLVQAGGSLRLSCAASGRIFAPYDMGWYRQAPGKERELVASITSGGSTNYTDSVKGRFTISRDNAKNTVYLQMNSLKPEDTAVYYCNTAKISEPTDPLQRVWGGTYDYWGQGTQVTVSS | low polyreactivity
QVQLVESGGGLVQAGGSLRLSCAASGRIFYYNAMGWYRQAHGKERELVAAISFSDGSTYYADSVKGRFTISRDNAKNTVYLQMNSLKPEDTAVYYCAADIGYDYDYWGQGTQVTVSS | low polyreactivity
QVQLVESGGGLVQAGGSLRLSFAASGNIFTFNAMGLYRQATGKDRELDAAIRSGGSTNYADSVKGRFTISRDNAKNTVDLQMNSLKPEDTAVYYCAAKRYVQGYVYRYGYWGQGTQVTVSS | high polyreactivity
QVQLVESGAGLVQAGGSLRFSCAASGFIFVAYAMGLYRPAPGKERELVAAITSSGGTTYYADSVKGRFTISRDNAKNSVYFQMNSLKPEDTAVYYSAAYRRRSPFEYWGQGTQVNVSS | high polyreactivity
QVQLVESVGGLVQAGGSLRLTCAASGSIFYVYAMGWYRQAPGKERELVANIRDGGITYADSVKGRFTISRDNAKNTVYLQMNSLKPEDTAVYYCARDDTSPGYGDQSSNAAYYYRGQGTQVTVSS | low polyreactivity
QVQLVESGGGLVQAGGSLRLSCAASGRIVVGYAMGWYRQAPGKERELVAAINRSGSSTYYADSVKGRFTISRDNAKNTVYLQMNSLKPEDTAVYYCNARSGNRYGPRYDYWGQGTQVTVSS | high polyreactivity
QVQLVESGGGLVQAGGSLRLSCAASGSIFNRYAMGWYRQAPGKERELVAAIRSGDNTNYADSVKGRFTISRDNAKNTVYLQMNSLKPEDTAVYYCAIRTYYRSRTVGWGKMDYWGQGTQVTVSS | high polyreactivity
QVQLVESGGGLVQAGGSLRLSCAASGSTFYKYVMGWYRQAPGKERELVAAISWSGGSTYYADSVKGRFTISRDNAKNTVYLQMNSLKPEDPAVYYCAAETYAYLFHTYDYWGQGTQVTVSS | low polyreactivity
QVQLVESGGGLVQAGGSLRLSCAASGRTFRYYAMGWYRQAPGKERELVAAITSGGSTYYADSVKGRFTISRDNAKNTVYLQMNSLKPEDTAVYYCNKDFTRTWTRHGDDYWGQGTQVTVSS | high polyreactivity
QVQLVESGGGLVQAGGSLRLSCAASGRTFKPYAMGWYRQAPGKERELVAAISTRGGSTYADSVKGRFTISRDNAKNTVYLQMNSLKPEDTAVYSCAAVYYRASARKFGYWGQGTQVTVSS | low polyreactivity
QVQLVESGGGLVQAGGSLRLSCAASGFTFSRNAMGWYRQAPGKERELVAAIDSGGSTDYADSVKGRFTISRDNAKNTVYLQMNSLKPEDTAVYYCAIASSATRYVQLRQDYDYWGQGTQVTVSS | low polyreactivity
QVQLVESGGGLVQAGCSLRLSCAASGYIFYNAMGWYRQAPGKERELVAAITSGGSTNYADSVKGRFTISRDNAKNTVYFQMNSLKPEDTADYYCNAVVYSPYRYEYWGQGTQVTVSS | low polyreactivity
QVQLVESGGGLVQAGGSLRLSCAASGRILTSNAMGWYRQAPGKERELVAAISWSGGSTYYADSVKGRFTISRDNAKNTVYLQMNSLKPEDTAVYYCAARSIGRAGGYHYWGQGTQVTVSS | low polyreactivity
QVQLVESVGGLVQAGGSLRLSCAASGSTFWFYTMGWYRQAPGKERELVATITSGGSTNYADSVKGRFTISRDNAKNTVYLQMNSLKPEDTAVYYCAASSVLTNHDYWGQGTQVTVSS | low polyreactivity
